Changes are numbered by the printed parent chain. Names and notes keep the numbering of the source. Each block holds one binder with its values, some of them ahead of it.
Assays:
[1] = target: the molecule itself; assay: chromatofocussing; protein purified in LDAO, detergent exchanged to Triton X-100 by size-exclusion chromatography, then chromatofocussing; pI compared with that of the pentamer
[2] = target: the molecule itself; assay: cell-based or functional assay
[3] = target: the molecule itself; assay: CW-EPR, intersubunit spin-spin interaction (spectral broadening); heteropentamers with 1, 2 or 3 light switches reconstituted in asolectin liposomes, room temperature, X-band; maximally (10:1) against minimally (1:10) spin-labelled channels
[4] = target: T1, G22C MscL, StrepII-tagged, labelled with the light switch at cysteine 22 (E. coli, UniProt P0A742 1-136, G22C, cysteine 22 alkylated with the light switch (iodoacetate bearing the photocleavable protecting group 6-nitroveratryl alcohol)); assay: sequential affinity chromatography (Ni-NTA, then Streptactin) + chromatofocussing; 6His-tagged and StrepII-tagged proteins purified in LDAO, mixed 1:1 (v/v), 45 min at room temperature, detergent exchanged to Triton X-100 by size exclusion; homopentamers removed on the two columns, heteropentamers separated on Mono P by pI; conditions: both partners purified
T1 construct: MscL, mechanosensitive channel of large conductance, E. coli; also called light switch-labeled-StrepII-tagged MscL; not shown: StrepII, C-terminal, kept
T1 sequence (looked up): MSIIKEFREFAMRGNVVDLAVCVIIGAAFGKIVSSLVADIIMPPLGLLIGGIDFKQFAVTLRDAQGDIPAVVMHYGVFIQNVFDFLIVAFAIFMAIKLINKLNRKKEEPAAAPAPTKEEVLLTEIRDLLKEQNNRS

[5] = target: the molecule itself; assay: native gel or EMSA; blue native gel (8-16 % gradient); pure G22C MscL incubated 1 h at room temperature with urea, guanidinium hydrochloride or trifluoroethanol (various detergents also screened)

B1: G22C-Strep MscL, unlabelled, after detergent exchange from LDAO to Triton X-100 (natural protein, E. coli, UniProt P0A742 1-136, looked up)
chain: T1 sequence (looked up)
notes: MscL, mechanosensitive channel of large conductance, E. coli
stoichiometry N [1]: 5
calcein dequenching assay of MscL reconstituted into liposomes, percent release; after exchange of LDAO to Triton X-100 (same protein:lipid ratio) [2]: 85%

binding result [4]: binds
B2: G22C MscL, 6His-tagged, labelled with the EPR spin label at cysteine 22 (natural protein, E. coli, UniProt P0A742 1-136, looked up)
chain: T1 sequence (looked up)
modifications: cysteine 22 labelled with (1-oxyl-2,2,5,5-tetramethylpyrrolin-3-methyl) methanethiosulfonate spin label (maximally, 10:1, or minimally, 1:10 label:protein)
notes: MscL, mechanosensitive channel of large conductance, E. coli; also called EPR spin-labeled- His-tagged MscL; source: E. coli PB104 (mscL-null), p1BAD vector, purified in LDAO (Ni-NTA), spin-labelled in detergent solution; not shown: 6His, C-terminal, kept
binding result [3]: binds

B3: G22C MscL (mechanosensitive channel of large conductance, E. coli), pure, unlabelled, as run on the blue native gel (natural protein, UniProt P0A742 1-136, looked up)
chain: T1 sequence (looked up)
notes: MscL, mechanosensitive channel of large conductance, E. coli; The denaturant treatment stands in the methods right after the isolation of the 6His-tagged protein, so the 6His form is likely; source: E. coli PB104 (mscL-null), p1BAD vector, purified from membrane vesicles
stoichiometry N [5]: 5

binding result [4]: binds
B4: I24C MscL labelled with the EPR spin label at cysteine 24 (natural protein, E. coli, UniProt P0A742 1-136, looked up)
chain: T1 sequence (looked up) with C22G, I24C
modifications: cysteine 24 labelled with (1-oxyl-2,2,5,5-tetramethylpyrrolin-3-methyl) methanethiosulfonate spin label
notes: MscL, mechanosensitive channel of large conductance, E. coli; source: E. coli PB104 (mscL-null), p1BAD vector, purified, spin-labelled
binding result [3]: binds

binding result [4]: binds
B5: A28C MscL labelled with the EPR spin label at cysteine 28 (natural protein, E. coli, UniProt P0A742 1-136, looked up)
chain: T1 sequence (looked up) with C22G, A28C
modifications: cysteine 28 labelled with (1-oxyl-2,2,5,5-tetramethylpyrrolin-3-methyl) methanethiosulfonate spin label
notes: as for B4
binding result [3]: binds

Source: publication PMC4562997, “Study of light-induced MscL gating by EPR spectroscopy” (European Biophysics Journal, 2015)
